How the values were obtained:
[1] = JC-1 staining in organoids; settings: glycan lost; control: WT organoids
[2] = MitoSOX staining in organoids; settings: glycan lost; control: WT organoids
[3] = complex I, III, IV, V activity kits; settings: glycan lost; control: WT organoids
[4] = Western blot of lysosome fractions after CCCP; settings: glycan lost; control: WT organoids
[5] = Western blot of Pink1, pS65-Ub, whole-cell lysate; settings: glycan lost; control: WT organoids
[6] = Western blot, whole-cell lysate; settings: glycan changed form; control: WT crypts

B1: N-acyl sphingosine amidohydrolase 2 (Asah2): Asah2-N444Q (protein)
parent chain: MAKRTFSTLEAFLIFLLVIMTVITVALLTLLFVTSGTIENHKDSGNHWFSTTLGSTTTQPPPITQTPNFPSFRNFSGYYIGVGRADCTGQVSDINLMGYGKNGQNARGLLTRLFSRAFILADPDGSNRMAFVSVELCMISQRLRLEVLKRLESKYGSLYRRDNVILSAIHTHSGPAGFFQYTLYILASEGFSNRTFQYIVSGIMKSIDIAHTNLKPGKIFINKGNVANVQINRSPSSYLLNPQSERARYSSNTDKEMLVLKLVDLNGEDLGLISWFAIHPVSMNNSNHFVNSDNMGYAAYLFEQEKNKGYLPGQGPFVAGFASSNLGDVSPNILGPHCVNTGESCDNDKSTCPNGGPSMCMASGPGQDMFESTHIIGRIIYQKAKELYASASQEVTGPVLAAHQWVNMTDVSVQLNATHTVKTCKPALGYSFAAGTIDGVSGLNITQGTTEGDPFWDTLRDQLLGKPSEEIVECQKPKPILLHSGELTIPHPWQPDIVDVQIVTVGSLAIAAIPGELTTMSGRRFREAIKKEFALYGMKDMTVVIAGLSNVYTHYITTYEEYQAQRYEAASTIYGPHTLSAYIQLFRDLAKAIATDTVANMSSGPEPPFFKNLIASLIPNIADRAPIGKHFGDVLQPAKPEYRVGEVVEVIFVGANPKNSAENQTHQTFLTVEKYEDSVADWQIMYNDASWETRFYWHKGILGLSNATIYWHIPDTAYPGIYRIRYFGHNRKQELLKPAVILAFEGISSPFEVVTT
other: mitochondrial membrane potential [1]: decreases | other: mitochondrial ROS level [2]: increases | other: respiratory chain complex activity [3]: decreases

B2: Niemann–Pick type C intracellular cholesterol transporter 1 (Npc1): Npc1-N961Q (protein)
parent chain: MGAHHPALGLLLLLLCPAQVFSQSCVWYGECGIATGDKRYNCKYSGPPKPLPKDGYDLVQELCPGLFFDNVSLCCDIQQLQTLKSNLQLPLQFLSRCPSCFYNLMTLFCELTCSPHQSQFLNVTATEDYFDPKTQENKTNVKELEYFVGQSFANAMYNACRDVEAPSSNEKALGLLCGRDARACNATNWIEYMFNKDNGQAPFTIIPVFSDLSILGMEPMRNATKGCNESVDEVTGPCSCQDCSIVCGPKPQPPPPPMPWRIWGLDAMYVIMWVTYVAFLFVFFGALLAVWCHRRRYFVSEYTPIDSNIAFSVNSSDKGEASCCDPLGAAFDDCLRRMFTKWGAFCVRNPTCIIFFSLAFITVCSSGLVFVQVTTNPVELWSAPHSQARLEKEYFDKHFGPFFRTEQLIIQAPNTSVHIYEPYPAGADVPFGPPLNKEILHQVLDLQIAIESITASYNNETVTLQDICVAPLSPYNKNCTIMSVLNYFQNSHAVLDSQVGDDFYIYADYHTHFLYCVRAPASLNDTSLLHGPCLGTFGGPVFPWLVLGGYDDQNYNNATALVITFPVNNYYNDTERLQRAWAWEKEFISFVKNYKNPNLTISFTAERSIEDELNRESNSDVFTVIISYVVMFLYISLALGHIQSCSRLLVDSKISLGIAGILIVLSSVACSLGIFSYMGMPLTLIVIEVIPFLVLAVGVDNIFILVQTYQRDERLQEETLDQQLGRILGEVAPTMFLSSFSETSAFFFGALSSMPAVHTFSLFAGMAVLIDFLLQITCFVSLLGLDIKRQEKNHLDILCCVRGADDGQGSHASESYLFRFFKNYFAPLLLKDWLRPIVVAVFVGVLSFSVAVVNKVDIGLDQSLSMPNDSYVIDYFKSLAQYLHSGPPVYFVLEEGYNYSSRKGQNMVCGGMGCDNDSLVQQIFNAAELDTYTRVGFAPSSWIDDYFDWVSPQSSCCRLYNVTHQFCNASVMDPTCVRCRPLTPEGKQRPQGKEFMKFLPMFLSDNPNPKCGKGGHAAYGSAVNIVGDDTYIGATYFMTYHTILKTSADYTDAMKKARLIASNITETMRSKGSDYRVFPYSVFYVFYEQYLTIIDDTIFNLSVSLGSIFLVTLVVLGCELWSAVIMCITIAMILVNMFGVMWLWGISLNAVSLVNLVMSCGISVEFCSHITRAFTMSTKGSRVSRAEEALAHMGSSVFSGITLTKFGGIVVLAFAKSQIFEIFYFRMYLAMVLLGATHGLIFLPVLLSYIGPSVNKAKRHTTYERYRGTERERLLNF
other: mitophagy, delivery of mitochondrial proteins to lysosomes [4]: decreases | other: mitochondrial membrane potential [1]: decreases | other: mitochondrial ROS level [2]: increases | other: mitophagy activation by CCCP [5]: no change

B3: N-acyl sphingosine amidohydrolase 2 (Asah2): Fut2ΔISC (protein)
parent chain: MAKRTFSTLEAFLIFLLVIMTVITVALLTLLFVTSGTIENHKDSGNHWFSTTLGSTTTQPPPITQTPNFPSFRNFSGYYIGVGRADCTGQVSDINLMGYGKNGQNARGLLTRLFSRAFILADPDGSNRMAFVSVELCMISQRLRLEVLKRLESKYGSLYRRDNVILSAIHTHSGPAGFFQYTLYILASEGFSNRTFQYIVSGIMKSIDIAHTNLKPGKIFINKGNVANVQINRSPSSYLLNPQSERARYSSNTDKEMLVLKLVDLNGEDLGLISWFAIHPVSMNNSNHFVNSDNMGYAAYLFEQEKNKGYLPGQGPFVAGFASSNLGDVSPNILGPHCVNTGESCDNDKSTCPNGGPSMCMASGPGQDMFESTHIIGRIIYQKAKELYASASQEVTGPVLAAHQWVNMTDVSVQLNATHTVKTCKPALGYSFAAGTIDGVSGLNITQGTTEGDPFWDTLRDQLLGKPSEEIVECQKPKPILLHSGELTIPHPWQPDIVDVQIVTVGSLAIAAIPGELTTMSGRRFREAIKKEFALYGMKDMTVVIAGLSNVYTHYITTYEEYQAQRYEAASTIYGPHTLSAYIQLFRDLAKAIATDTVANMSSGPEPPFFKNLIASLIPNIADRAPIGKHFGDVLQPAKPEYRVGEVVEVIFVGANPKNSAENQTHQTFLTVEKYEDSVADWQIMYNDASWETRFYWHKGILGLSNATIYWHIPDTAYPGIYRIRYFGHNRKQELLKPAVILAFEGISSPFEVVTT
expression_or_secretion [6]: no change

B4: basigin (Bsg): Bsg-N306Q (protein)
parent chain: MAAALLLALAFTLLSGQGACAAAGFLKAPLSQERWAGGSVVLHCEAVGSPIPEIQWWFEGNAPNDSCSQLWDGARLDRVHIHAAYRQHAASSLSVDGLTAEDTGTYECRASSDPDRNHLTRPPRVKWVRAQASVVVLEPGTIQTSVQEVNSKTQLTCSLNSSGVDIVGHRWMRGGKVLQEDTLPDLHTKYIVDADDRSGEYSCIFLPEPVGRSEINVEGPPRIKVGKKSEHSSEGELAKLVCKSDASYPPITDWFWFKTSDTGEEEAITNSTEANGKYVVVSTPEKSQLTISNLDVNVDPGTYVCNATNAQGTTRETISLRVRSRMAALWPFLGIVAEVLVLVTIIFIYEKRRKPDQTLDEDDPGAAPLKGSGTHMNDKDKNVRQRNAT
other: mitochondrial membrane potential [1]: no change | other: mitochondrial ROS level [2]: no change

B5: Niemann–Pick type C intracellular cholesterol transporter 1 (Npc1): Fut2ΔISC (protein)
parent chain: MGAHHPALGLLLLLLCPAQVFSQSCVWYGECGIATGDKRYNCKYSGPPKPLPKDGYDLVQELCPGLFFDNVSLCCDIQQLQTLKSNLQLPLQFLSRCPSCFYNLMTLFCELTCSPHQSQFLNVTATEDYFDPKTQENKTNVKELEYFVGQSFANAMYNACRDVEAPSSNEKALGLLCGRDARACNATNWIEYMFNKDNGQAPFTIIPVFSDLSILGMEPMRNATKGCNESVDEVTGPCSCQDCSIVCGPKPQPPPPPMPWRIWGLDAMYVIMWVTYVAFLFVFFGALLAVWCHRRRYFVSEYTPIDSNIAFSVNSSDKGEASCCDPLGAAFDDCLRRMFTKWGAFCVRNPTCIIFFSLAFITVCSSGLVFVQVTTNPVELWSAPHSQARLEKEYFDKHFGPFFRTEQLIIQAPNTSVHIYEPYPAGADVPFGPPLNKEILHQVLDLQIAIESITASYNNETVTLQDICVAPLSPYNKNCTIMSVLNYFQNSHAVLDSQVGDDFYIYADYHTHFLYCVRAPASLNDTSLLHGPCLGTFGGPVFPWLVLGGYDDQNYNNATALVITFPVNNYYNDTERLQRAWAWEKEFISFVKNYKNPNLTISFTAERSIEDELNRESNSDVFTVIISYVVMFLYISLALGHIQSCSRLLVDSKISLGIAGILIVLSSVACSLGIFSYMGMPLTLIVIEVIPFLVLAVGVDNIFILVQTYQRDERLQEETLDQQLGRILGEVAPTMFLSSFSETSAFFFGALSSMPAVHTFSLFAGMAVLIDFLLQITCFVSLLGLDIKRQEKNHLDILCCVRGADDGQGSHASESYLFRFFKNYFAPLLLKDWLRPIVVAVFVGVLSFSVAVVNKVDIGLDQSLSMPNDSYVIDYFKSLAQYLHSGPPVYFVLEEGYNYSSRKGQNMVCGGMGCDNDSLVQQIFNAAELDTYTRVGFAPSSWIDDYFDWVSPQSSCCRLYNVTHQFCNASVMDPTCVRCRPLTPEGKQRPQGKEFMKFLPMFLSDNPNPKCGKGGHAAYGSAVNIVGDDTYIGATYFMTYHTILKTSADYTDAMKKARLIASNITETMRSKGSDYRVFPYSVFYVFYEQYLTIIDDTIFNLSVSLGSIFLVTLVVLGCELWSAVIMCITIAMILVNMFGVMWLWGISLNAVSLVNLVMSCGISVEFCSHITRAFTMSTKGSRVSRAEEALAHMGSSVFSGITLTKFGGIVVLAFAKSQIFEIFYFRMYLAMVLLGATHGLIFLPVLLSYIGPSVNKAKRHTTYERYRGTERERLLNF
expression_or_secretion [6]: no change

B6: basigin (Bsg): Fut2ΔISC (protein)
parent chain: MAAALLLALAFTLLSGQGACAAAGFLKAPLSQERWAGGSVVLHCEAVGSPIPEIQWWFEGNAPNDSCSQLWDGARLDRVHIHAAYRQHAASSLSVDGLTAEDTGTYECRASSDPDRNHLTRPPRVKWVRAQASVVVLEPGTIQTSVQEVNSKTQLTCSLNSSGVDIVGHRWMRGGKVLQEDTLPDLHTKYIVDADDRSGEYSCIFLPEPVGRSEINVEGPPRIKVGKKSEHSSEGELAKLVCKSDASYPPITDWFWFKTSDTGEEEAITNSTEANGKYVVVSTPEKSQLTISNLDVNVDPGTYVCNATNAQGTTRETISLRVRSRMAALWPFLGIVAEVLVLVTIIFIYEKRRKPDQTLDEDDPGAAPLKGSGTHMNDKDKNVRQRNAT
expression_or_secretion [6]: no change

— PMC10976588
